Reference: patent publication US20230136228A1 (LAMKAP BIO ALPHA, published 2023)

Legend:
[1] = target: T1, human CEACAM5 (carcinoembryonic antigen, CEA), cell surface (human, UniProt P06731 35-685); assay: flow cytometry, MKN-45 and/or HPAF-II cells
T1 construct: whole, on cells; also called CD66e
T1 sequence (looked up): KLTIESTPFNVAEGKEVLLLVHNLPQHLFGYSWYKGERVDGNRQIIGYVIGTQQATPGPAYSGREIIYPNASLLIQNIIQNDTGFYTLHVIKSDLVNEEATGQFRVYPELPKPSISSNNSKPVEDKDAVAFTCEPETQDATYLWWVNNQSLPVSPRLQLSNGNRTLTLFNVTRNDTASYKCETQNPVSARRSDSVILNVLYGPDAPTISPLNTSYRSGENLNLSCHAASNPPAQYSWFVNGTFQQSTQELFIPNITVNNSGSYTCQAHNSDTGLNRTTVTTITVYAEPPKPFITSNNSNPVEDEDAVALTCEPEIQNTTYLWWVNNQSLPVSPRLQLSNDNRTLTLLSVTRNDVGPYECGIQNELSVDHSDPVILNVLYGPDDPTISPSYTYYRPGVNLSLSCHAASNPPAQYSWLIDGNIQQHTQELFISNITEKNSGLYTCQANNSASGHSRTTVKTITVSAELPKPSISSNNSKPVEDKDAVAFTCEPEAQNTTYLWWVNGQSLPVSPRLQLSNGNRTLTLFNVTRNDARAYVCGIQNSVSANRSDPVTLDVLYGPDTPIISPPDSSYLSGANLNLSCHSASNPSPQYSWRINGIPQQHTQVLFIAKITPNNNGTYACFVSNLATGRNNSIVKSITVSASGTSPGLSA

human CD3ε = target: T2, human CD3ε (human, UniProt P07766 23-207); assay: flow cytometry, HUT-78 cells
T2 construct: whole, on cells; Present on cells as part of the CD3/TCR complex; also called CD3 epsilon
T2 sequence (P07766 23-207): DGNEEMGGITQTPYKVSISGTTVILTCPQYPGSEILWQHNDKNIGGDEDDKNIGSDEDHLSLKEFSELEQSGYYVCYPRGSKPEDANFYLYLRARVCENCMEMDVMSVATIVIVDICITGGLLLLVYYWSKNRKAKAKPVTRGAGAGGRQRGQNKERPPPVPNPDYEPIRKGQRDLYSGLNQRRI

B1: AB13L3-1/N (bispecific antibody, human IgG1, kappa, lambda, L234A L235A)
heavy: EVQLVESGGGLVQPGGSLKLSCAASGFTFNTYAMNWVRQAPGKGLEWVGRIRSKYNNYATYYADSVKDRFTISRDDSKNTAYLQMNSLKTEDTAVYYCVRHGNFGNSYVSWFAYWGQGTLVTVSSASTKGPSVFPLAPSSKSTSGGTAALGCLVKDYFPEPVTVSWNSGALTSGVHTFPAVLQSSGLYSLSSVVTVPSSSLGTQTYICNVNHKPSNTKVDKRVEPKSCDKTHTCPPCPAPEAAGGPSVFLFPPKPKDTLMISRTPEVTCVVVDVSHEDPEVKFNWYVDGVEVHNAKTKPREEQYNSTYRVVSVLTVLHQDWLNGKEYKCKVSNKALAAPIEKTISKAKGQPREPQVYTLPPSREEMTKNQVSLTCLVKGFYPSDIAVEWESNGQPENNYKTTPPVLDSDGSFFLYSKLTVDKSRWQQGNVFSCSVMHEALHNHYTQKSLSLSPG
light 1: EIVLTQSPATLSLSPGERATLSCRASQSVNSNLNWYQQKPGQAPRLLIYHGSNRATGIPARFSGSGSGTDFTLTISSLEPEDFAVYYCQQFDYFMNKNTFGQGTKVEIKRTVAAPSVFIFPPSDEQLKSGTASVVCLLNNFYPREAKVQWKVDNALQSGNSQESVTEQDSKDSTYSLSSTLTLSKADYEKHKVYACEVTHQGLSSPVTKSFNRGEC
light 2: QTVVTQEPSLTVSPGGTVTLTCRSSTGAVTTSNYANWFQQKPGQAPRGLIGGTNKRAPGTPARFSGSLLGGKAALTLSGAQPEDEAEYYCALWYKQRWVFGGGTKLTVLGQPKAAPSVTLFPPSSEELQANKATLVCLISDFYPGAVTVAWKADSSPVKAGVETTTPSKQSNNKYAASSYLSLTPEQWKSHRSYSCQVTHEGSTVEKTVAPTECS
notes: Kappa-lambda body, lead optimization wave 1
binding higher than TCB2014 (at 100 nM) [1]: ≥ 40% | binding result (human CD3ε): binds

B2: AB20L3-1/N (bispecific antibody, human IgG1, kappa, lambda, L234A L235A)
heavy: EVQLVESGGGLVQPGGSLKLSCAASGFTFNTYAMNWVRQAPGKGLEWVGRIRSKYNNYATYYADSVKDRFTISRDDSKNTAYLQMNSLKTEDTAVYYCVRHGNFGNSYVSWFAYWGQGTLVTVSSASTKGPSVFPLAPSSKSTSGGTAALGCLVKDYFPEPVTVSWNSGALTSGVHTFPAVLQSSGLYSLSSVVTVPSSSLGTQTYICNVNHKPSNTKVDKRVEPKSCDKTHTCPPCPAPEAAGGPSVFLFPPKPKDTLMISRTPEVTCVVVDVSHEDPEVKFNWYVDGVEVHNAKTKPREEQYNSTYRVVSVLTVLHQDWLNGKEYKCKVSNKALAAPIEKTISKAKGQPREPQVYTLPPSREEMTKNQVSLTCLVKGFYPSDIAVEWESNGQPENNYKTTPPVLDSDGSFFLYSKLTVDKSRWQQGNVFSCSVMHEALHNHYTQKSLSLSPG
light 1: EIVLTQSPATLSLSPGERATLSCRASQSVNSNLNWYQQKPGQAPRLLIYHGSNRATGIPARFSGSGSGTDFTLTISSLEPEDFAVYYCQQFDYFRELNTFGQGTKVEIKRTVAAPSVFIFPPSDEQLKSGTASVVCLLNNFYPREAKVQWKVDNALQSGNSQESVTEQDSKDSTYSLSSTLTLSKADYEKHKVYACEVTHQGLSSPVTKSFNRGEC
light 2: QTVVTQEPSLTVSPGGTVTLTCRSSTGAVTTSNYANWFQQKPGQAPRGLIGGTNKRAPGTPARFSGSLLGGKAALTLSGAQPEDEAEYYCALWYKQRWVFGGGTKLTVLGQPKAAPSVTLFPPSSEELQANKATLVCLISDFYPGAVTVAWKADSSPVKAGVETTTPSKQSNNKYAASSYLSLTPEQWKSHRSYSCQVTHEGSTVEKTVAPTECS
notes: as for B1
binding higher than TCB2014 (at 100 nM) [1]: ≥ 40% | binding result (human CD3ε): binds
